Data reported in publication PMC8503845.

Biological target: SZ*-GFP-Ub4 (HA-tagged) (UniProt P0CG63)
Test: co-IP

B1: Ubx2-6xGly-3xFLAG (natural protein)
chain: MPVVNHEDSEFHLSHTEEDKLNEFQVITNFPPEDLPDVVRLLRNHGWQLEPALSRYFDGEWKGEPDQMGEPTQTSTPMAETLVPPALGPRPLLFTASLPVVRPLPANFRNDFRTIGLNGRSNTVWSMFESFSYDGNPFLFILLLIPRIINRLSATIFTFFCTLLSLHSISGGGNSGKPKISKVPKAPTRETHIPLAEILGDTKDKDAFCELKSFKPDISFNEALRIAKEEFKFMLLILVGDTYDTDTDTVDVNSKLLLEKILLNKKTLQYLRKIDNDLIIYLKCVHELEPWLVARQLGVRNTPEIFLIANVANKASHSETLPSQRLSILGKLKVNSLNRFLQSLTNVVEKYTPELVVNKTEMHELRMSREIKKLQEDAYKKSLEMDRIKAIEKEKSLKHAQDLKLNSTARQLKWLKACIDEIQPFETTGKQATLQFRTSSGKRFVKKFPSMTTLYQIYQSIGCHIYLAVYSSDPAEWSNALQDKIRQLSADDDMLCFKEGQLETATATTIEELGHIINNELTSFDLERGKLEFDFELVSPFPKYTVHPNEHMSVDQVPQLWPNGSLLVEALDEEDEEDEENEEQ
B1 was tested, and the fold increase of binding relative to the Ubx2-SZ*-GFP complex was 10 fold.
